In one assay the target is FcγRIIIaV (human) (UniProt P08637). Kind of assay: BLI.
Assay [1] concerns the target His-tagged FcγRIIaR (human) (UniProt P12318). Kind of assay: ELISA.
The next assay addresses His-tagged FcγRI (human) (UniProt P12314). Nature of the assay: ELISA.
Assay [2] addresses His-tagged FcγRIIB (human) (UniProt P31994). Nature of the assay: ELISA.
Chain of UniProt P31994 (P31994 43-217): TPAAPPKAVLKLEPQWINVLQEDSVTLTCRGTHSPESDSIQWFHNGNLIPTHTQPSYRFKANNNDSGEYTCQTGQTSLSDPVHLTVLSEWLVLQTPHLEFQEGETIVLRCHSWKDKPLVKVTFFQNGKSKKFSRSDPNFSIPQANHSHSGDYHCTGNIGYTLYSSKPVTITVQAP

Chain of UniProt P12314 (P12314 16-292): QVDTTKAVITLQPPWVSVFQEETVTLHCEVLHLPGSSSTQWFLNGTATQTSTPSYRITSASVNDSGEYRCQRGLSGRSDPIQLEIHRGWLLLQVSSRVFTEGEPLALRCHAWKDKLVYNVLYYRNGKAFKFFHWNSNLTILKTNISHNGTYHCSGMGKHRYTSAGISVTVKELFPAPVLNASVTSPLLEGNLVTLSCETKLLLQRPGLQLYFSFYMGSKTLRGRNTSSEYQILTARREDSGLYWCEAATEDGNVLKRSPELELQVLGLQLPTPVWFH
Chain of UniProt P12318 (P12318 34-217): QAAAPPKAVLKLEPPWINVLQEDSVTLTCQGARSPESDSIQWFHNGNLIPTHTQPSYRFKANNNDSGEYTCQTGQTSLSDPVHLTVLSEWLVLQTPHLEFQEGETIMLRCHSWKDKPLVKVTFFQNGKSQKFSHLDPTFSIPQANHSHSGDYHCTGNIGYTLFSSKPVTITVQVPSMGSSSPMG
Chain of UniProt P08637 (P08637 17-208): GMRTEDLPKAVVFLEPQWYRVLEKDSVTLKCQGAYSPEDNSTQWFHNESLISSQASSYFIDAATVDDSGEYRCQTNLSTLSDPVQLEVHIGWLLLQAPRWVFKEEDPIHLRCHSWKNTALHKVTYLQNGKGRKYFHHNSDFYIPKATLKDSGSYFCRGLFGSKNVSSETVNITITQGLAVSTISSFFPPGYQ

For the substance “monoclonal anti-CD20 antibody GA101 produced in 293SGlycoDelete cells”, the fold lower binding affinity against 293S anti-CD20 with FcγRIIIaV (human) worked out at 5.8 fold. The fold reduction of binding competition against 293S anti-CD20 (in assay [1]; with His-tagged FcγRI (human); in assay [2]) was above 10 fold in each case.

The values above are taken from publication PMC7039703.
